# Assay results: patent US20210063414A1, “METHODS FOR PREVENTING AND/OR TREATING BONE LOSS CONDITIONS BY MODULATING IRISIN” (Dana-Farber Cancer Institute, Inc., priority 2018, published 2021)
# Experiments:
# [1] = target: T1, MLO-Y4 cell surface proteins (Mus musculus, UniProt O88492); assay: Crosslinking/co-immunoprecipitation/mass spectrometry (TMT quantitative proteomics) to identify irisin receptors; assay type: binding; details: co-precipitated protein Plin4 (PLIN4_MOUSE)
# T1 construct: endogenous in cells; host or cells: MLO-Y4
# T1 sequence (O88492 1-1403): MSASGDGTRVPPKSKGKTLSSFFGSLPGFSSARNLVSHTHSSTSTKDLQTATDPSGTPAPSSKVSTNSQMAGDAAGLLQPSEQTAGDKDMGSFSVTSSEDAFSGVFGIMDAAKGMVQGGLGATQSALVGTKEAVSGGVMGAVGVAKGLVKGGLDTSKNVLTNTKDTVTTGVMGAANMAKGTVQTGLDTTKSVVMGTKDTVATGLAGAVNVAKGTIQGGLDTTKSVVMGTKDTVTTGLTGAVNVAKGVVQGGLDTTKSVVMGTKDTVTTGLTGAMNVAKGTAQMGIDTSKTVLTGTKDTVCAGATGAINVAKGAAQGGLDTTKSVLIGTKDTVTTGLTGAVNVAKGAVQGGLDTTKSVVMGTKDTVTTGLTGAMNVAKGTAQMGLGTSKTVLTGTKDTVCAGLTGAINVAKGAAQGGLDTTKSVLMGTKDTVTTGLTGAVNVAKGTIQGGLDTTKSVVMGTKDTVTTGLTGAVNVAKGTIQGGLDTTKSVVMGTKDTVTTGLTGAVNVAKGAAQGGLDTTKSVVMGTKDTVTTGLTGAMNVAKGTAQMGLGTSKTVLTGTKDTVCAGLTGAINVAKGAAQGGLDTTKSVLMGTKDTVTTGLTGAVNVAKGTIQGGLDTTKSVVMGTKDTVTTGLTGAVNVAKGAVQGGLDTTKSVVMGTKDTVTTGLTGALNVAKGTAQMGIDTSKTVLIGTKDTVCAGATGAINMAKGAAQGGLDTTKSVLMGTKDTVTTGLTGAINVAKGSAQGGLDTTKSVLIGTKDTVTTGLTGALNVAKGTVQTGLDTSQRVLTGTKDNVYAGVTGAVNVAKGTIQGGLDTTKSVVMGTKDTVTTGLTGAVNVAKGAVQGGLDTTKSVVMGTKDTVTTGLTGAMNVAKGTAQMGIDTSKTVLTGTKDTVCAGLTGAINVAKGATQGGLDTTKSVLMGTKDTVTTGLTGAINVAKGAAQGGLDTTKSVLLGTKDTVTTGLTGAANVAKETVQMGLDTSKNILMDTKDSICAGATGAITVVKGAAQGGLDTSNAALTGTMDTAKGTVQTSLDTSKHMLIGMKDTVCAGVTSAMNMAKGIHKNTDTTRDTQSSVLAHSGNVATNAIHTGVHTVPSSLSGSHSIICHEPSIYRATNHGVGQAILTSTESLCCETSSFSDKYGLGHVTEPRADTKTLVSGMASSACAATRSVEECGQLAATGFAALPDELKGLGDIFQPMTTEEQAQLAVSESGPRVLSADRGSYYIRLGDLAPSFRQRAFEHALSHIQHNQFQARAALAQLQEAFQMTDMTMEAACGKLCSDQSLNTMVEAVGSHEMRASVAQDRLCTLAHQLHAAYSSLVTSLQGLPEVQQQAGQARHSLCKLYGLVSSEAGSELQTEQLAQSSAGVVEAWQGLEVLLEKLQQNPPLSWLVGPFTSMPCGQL
# Method: (§1) MLO-Y4 cells were seeded on 30×150 mm type-I collagen coated dishes as described in cell culture experiment. At 60% cell density, medium was switched to FreeStyle™ 293 Expression medium. After 4 hours incubation, the cells were chilled on ice for 10 minutes, followed by treatment of 10 nM his-tag irisin or his-tag adipsin for 20 minutes. The cells were then incubated with 1.5 mM DTSSP for 30 minutes on ice to do cross-linking, after washing with 15 ml cold PBS twice. The cross-linking was quenched by addition of a final concentration of 20 mM Tris-pH 7.5. The cells were then harvested and homogenized in 1 ml RIPA buffer containing proteaseinhibitor cocktailand phosphatase-inhibitor cocktail. Whole-cell lysates were homogenized by 10 times passages through a 22G needle fitted to a 3 ml syringe. Homogenized samples were rotated gently in cold room for 20 minutes followed by 15,000×g centrifugation for 10 minutes. After addition of a final concentration of 10 mM imidazole, supernatants were incubated with 100 μl Ni-NTA agarose for 1 hour. After centrifugation at 500×g for 1 minute, the supernatants were aspirated and 1 ml cold RIPA buffer containing 10 mM imidazole were added to the agarose. After 10 minutes rotation in cold room, the supernatants were aspirated and 1 ml cold RIPA buffer containing 30 mM imidazole were added to the agarose. After repeating the washing 3 times, 0.8 ml RIPA buffer containing 250 mM imidazole was added and the agarose was gently rotated in a cold room for 20 minutes. After centrifugation at 1000×g for 2 minutes, the supernatants were transferred to 1.5 ml tube and incubated with 100 μl 0.2% sodium deoxycholate and 100 μl 10% trichloroacetic acid in ice for 1 hour. After centrifugation at 12,000×g for 10 minutes at 4° C., the supernatants were removed and 1 ml cold acetone was added to the pellets followed by vortexing for 10 seconds. After one more washing with cold acetone, the pellets were dried at 37° C., and 39 μl PBS and 13 μl 4×NuPAGE LDS were added to the pellets with a final concentration of 5 mM DTT. Solubilized proteins were incubated at 65° C. for 20 minutes followed by incubation with a final concentration of 14 mM iodoacetamide for 45 minutes in the dark. 38 μl samples were loaded to 4-12% gradient SDS-PAGE for separation followed by Coomassie Blue staining. The gels were submitted to quantitative proteomics.
# (§2) For in-gel digestions, gels were stained with Coomassie Blue and were excised into 8 equal segments for control and irisin lanes. Gel pieces were destained and dehydrated with 100% acetonitrile, vacuumed dried, and digested in 25 mM HEPES (pH 8.5) with 500 ng sequencing grade trypsin (Promega) and incubated for an overnight at 37° C. (Shevchenko et al. (1996) Anal. Chem. 68:850-858). Digests were treated with 1% formic acid and purified using C18 Stage-Tips as previously described (Rappsilber et al. (2007) Nat. Protoc. 2:1896-1906). Peptides were eluted with 70% acetonitrile and 1% formic acid, then dried using a speedvac. Isobaric labeling of digested peptides was accomplished using 6-plex tandem mass tag (TMT) reagents (Thermo Fisher Scientific, Rockford, Ill.). Reagents, 5.0 mg, were dissolved in 252 μl acetonitrile (ACN) and 5 μl of the solution was added to the digested peptides dissolved in 25 μl of 200 mM HEPES, pH 8.5. After 1 hour at room temperature, the reaction was quenched by adding 1 μl of 5% hydroxylamine. Labeled peptides were combined and acidified prior to C18 Stage-Tips desalting.
# (§3) All LC-MS/MS experiments were performed on an Orbitrap Fusion™ Lumos mass spectrometer (Thermo Fisher Scientific, San Jose, Calif., USA) coupled with a Proxeon EASY-nLC™ 1200 LC pump (Thermo Fisher Scientific). Peptides were separated on a 100 μm inner diameter microcapillary column packed with 35 cm of Accucore™ C18 resin (1.8 μm, 100 Å, Thermo Fisher Scientific). […]
# [2] = target: T2, MLO-Y4 cell surface proteins (Mus musculus, UniProt Q9JHS4); assay: as above; assay type: binding; details: co-precipitated protein Clpx (CLPX_MOUSE)
# T2 construct: endogenous in cells; host or cells: MLO-Y4
# T2 sequence (Q9JHS4 57-634): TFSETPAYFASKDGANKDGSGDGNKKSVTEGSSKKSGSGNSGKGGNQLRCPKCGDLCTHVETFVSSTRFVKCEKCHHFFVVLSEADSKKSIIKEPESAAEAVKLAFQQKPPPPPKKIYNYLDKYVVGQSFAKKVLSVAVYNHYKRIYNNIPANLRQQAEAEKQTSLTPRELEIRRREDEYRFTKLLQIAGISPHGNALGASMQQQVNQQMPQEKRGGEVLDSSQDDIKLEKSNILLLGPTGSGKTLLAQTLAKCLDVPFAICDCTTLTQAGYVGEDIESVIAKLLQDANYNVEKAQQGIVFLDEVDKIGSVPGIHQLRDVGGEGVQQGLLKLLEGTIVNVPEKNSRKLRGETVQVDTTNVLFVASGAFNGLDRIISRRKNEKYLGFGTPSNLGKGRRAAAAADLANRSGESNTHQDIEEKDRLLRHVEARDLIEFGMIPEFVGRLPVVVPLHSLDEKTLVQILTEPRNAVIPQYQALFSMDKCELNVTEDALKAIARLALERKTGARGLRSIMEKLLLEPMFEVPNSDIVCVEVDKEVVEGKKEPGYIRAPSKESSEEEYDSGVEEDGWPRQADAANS
# Method: as §1, §2, §3
substance,measurement,setting,value
adipsin,TMT signal-to-noise ratio,[1],111.989
same,TMT signal-to-noise ratio,[2],1517.78
